Measured values taken from paper PMC7797036.

B1: 43 nt ssDNA (ssDNA)
DNA: ATTATTATTATTCGAATGGATTTATTTATTTATTTATTTATTT

Columns and labels:
[1] = molecular target: APOBEC1 (A1), RNase A treated (UniProt P41238); experiment: fluorescence anisotropy
APOBEC3H haplotype VII = experiment: fluorescence anisotropy
[2] = tested on: APOBEC1 (A1), RNase A untreated; experiment: fluorescence anisotropy
APOBEC3C = APOBEC3C (UniProt Q9NRW3 1-190); experiment: EMSA
Sequence of APOBEC3C (Q9NRW3 whole entry): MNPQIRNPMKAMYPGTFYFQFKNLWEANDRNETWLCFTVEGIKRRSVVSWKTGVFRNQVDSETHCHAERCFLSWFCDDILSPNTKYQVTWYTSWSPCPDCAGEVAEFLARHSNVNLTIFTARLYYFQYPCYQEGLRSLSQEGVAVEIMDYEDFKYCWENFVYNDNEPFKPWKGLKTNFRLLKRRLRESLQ

Sequence of APOBEC1 (A1), RNase A treated (P41238 whole entry): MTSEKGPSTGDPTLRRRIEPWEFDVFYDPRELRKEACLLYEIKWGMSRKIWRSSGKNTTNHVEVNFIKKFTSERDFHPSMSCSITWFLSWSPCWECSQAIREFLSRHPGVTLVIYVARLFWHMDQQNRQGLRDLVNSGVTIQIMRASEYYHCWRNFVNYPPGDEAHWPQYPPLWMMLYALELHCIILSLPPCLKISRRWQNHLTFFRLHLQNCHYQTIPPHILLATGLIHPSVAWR

| Molecule | Kd [1] | binding signal (fold Kd increase vs no RPA) [1] | binding signal (fold Kd increase vs no RPA) (APOBEC3H haplotype VII) | Kd [2] | binding result (APOBEC3C) |
| --- | --- | --- | --- | --- | --- |
| 118 nt ssDNA with two 5'TTC motifs 63 nt apart | 343 nM | 9 | 3 | 351 nM |  |
| B1 |  |  |  |  | binds |
